± gives the uncertainty stated by the source.
Assay: self-splicing fitness, log relative to wild type (ln ratio); higher = more splicing; Tetrahymena group I intron in knt gene, E. coli kanamycin selection, DiMSum; sequences stand for … in CUCUCU…GGAGGGAAAAGUUAUCAGGCAUGCACCUGGUAGCUAGUCUUUAAACCAAUAGAUUGCAUCGGUUUAAAAGGCAAGACCGUCAAAUUGCGGGAAAGGGGUCAACAGCCGUUCAGUACCAAGUCUCAGGGGAAACUUUGAGAUGGCCUUGCAAAGGGUAUGGUAAUAAGCUGACGGACAUGGUCCUAACCACGCAGCCAAGUCCUAAGUCAACAGAUCUUCUGUUGAUAUGGAUGCAGUUCACAGACUAAAUGUCGGUCGGGGAAGAUGUAUUCUUCUCAUAAGAUAUAGUCGGACCUCUCCUUAAUGGGAGCUAGCGGAUGAAGUGAUGCAACACUGGAGCCGCUGGGAACUAAUUUGUAUGCGAAAGUAUAUUGAUUAGUUUUGGAGUACUCGUGGUCG
Method in brief: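 Fitness was computed with DiMSum as the error-weighted combination of replicate fold changes, kanamycin versus none, each normalised to wild type. The library randomised all eight intron nucleotides of the P1ex region, with the intron placed in the knt kanamycin-resistance gene on pET-22b(+) in E. coli BL21(DE3). Six replicate transformations were grown overnight at 37°C or 30°C on LB agar with or without 25 μg/mL kanamycin, plus 100 μg/mL carbenicillin, 50 μM IPTG and 0.2% rhamnose. Pooled colonies were amplicon-sequenced on an Illumina HiSeq 2500.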

Sequence	self-splicing fitness (ln) (30 °C)	self-splicing fitness (ln) (37 °C)
AAGUAGCAAUAUUACGUAGA	-3.01 ± 0.18	-1.45 ± 0.21
GACAAGCAAUAUUACGGAGU	-3.03 ± 0.1	-0.954 ± 0.1
GAGUAGCAAUAUUACGAUUG	-2.87 ± 0.25	-2.14 ± 0.19
AAGUAGCAAUAUUACGGUCC	-1.32 ± 0.17	-0.239 ± 0.14
AGGUAGCAAUAUUACGCACU	-1.32 ± 0.017	-0.862 ± 0.035
CAAAAGCAAUAUUACGGCGA	-1.16 ± 0.11	-0.502 ± 0.098
UUAGAGCAAUAUUACGAUCA	-1.52 ± 0.16	-0.808 ± 0.17
AGCAAGCAAUAUUACGGUUG	-3.23 ± 0.17	-1.32 ± 0.16
UCGGAGCAAUAUUACGUUGA	-2.58 ± 0.25	-1.22 ± 0.16
CUGAAGCAAUAUUACGACAC	-2.05 ± 0.32	–
UGACAGCAAUAUUACGGCAA	-1.41 ± 0.14	-0.13 ± 0.17
ACCGAGCAAUAUUACGUAAG	-2.67 ± 0.13	-2.13 ± 0.16
CAUAAGCAAUAUUACGUCCA	-3.32 ± 0.33	-1.87 ± 0.22
UCAGAGCAAUAUUACGUGCU	-3.09 ± 0.2	-3.07 ± 0.28
CCUUAGCAAUAUUACGCAAA	–	-2.89 ± 0.34
UGGUAGCAAUAUUACGAUCU	-0.554 ± 0.13	0.576 ± 0.18
GGACAGCAAUAUUACGGGAG	-2.73 ± 0.13	-1.28 ± 0.15
UUCUAGCAAUAUUACGUACC	–	-0.136 ± 0.48
CGUAAGCAAUAUUACGUAAG	-1.49 ± 0.1	-0.165 ± 0.092
UUGAAGCAAUAUUACGUUCG	-0.397 ± 0.065	0.0406 ± 0.088
UAUCAGCAAUAUUACGCCGA	-1.32 ± 0.12	-0.34 ± 0.18
AAGUAGCAAUAUUACGACGA	0.0522 ± 0.098	0.0374 ± 0.11
UUACAGCAAUAUUACGUUAG	-0.713 ± 0.086	0.208 ± 0.12
UGGAAGCAAUAUUACGGUGC	-2.93 ± 0.3	-2.86 ± 0.43
UAAUAGCAAUAUUACGAUGC	-3.45 ± 0.3	–

Sequence	self-splicing fitness (ln) (30 °C)	self-splicing fitness (ln) (37 °C)
GAACAGCAAUAUUACGUUAC	-2.53 ± 0.14	-1.32 ± 0.16
UGGCAGCAAUAUUACGUGCU	-2.71 ± 0.14	-1.79 ± 0.17
GGACAGCAAUAUUACGUACA	-1.06 ± 0.096	0.0922 ± 0.12
UCUAAGCAAUAUUACGUAGA	-1.2 ± 0.098	-0.771 ± 0.15
AAAAAGCAAUAUUACGCGUC	-2.31 ± 0.16	-1.72 ± 0.16
UUCGAGCAAUAUUACGCUAG	-2.82 ± 0.26	-2.05 ± 0.42
GAUAAGCAAUAUUACGUCAU	-2.38 ± 0.086	-1.62 ± 0.095
CUCGAGCAAUAUUACGACGU	-3.11 ± 0.14	-1.59 ± 0.14
AAUAAGCAAUAUUACGUUGU	-3.22 ± 0.14	-2.51 ± 0.19
UGUAAGCAAUAUUACGAGUC	–	-2.47 ± 0.33
GCCCAGCAAUAUUACGCCGG	-3.34 ± 0.27	-2.9 ± 0.47
UUAGAGCAAUAUUACGAAAG	-2.9 ± 0.4	-0.494 ± 0.35
CCAGAGCAAUAUUACGACAC	-1.29 ± 0.22	–
GAAUAGCAAUAUUACGGCUA	-0.51 ± 0.15	-0.595 ± 0.14
CUCUAGCAAUAUUACGGCUC	-3.83 ± 0.22	-2.09 ± 0.21
UAUAAGCAAUAUUACGCUGA	-1.96 ± 0.22	-1.53 ± 0.23
CGGGAGCAAUAUUACGCUUA	-2.19 ± 0.21	-2.87 ± 0.43
AUGGAGCAAUAUUACGCACG	-2.3 ± 0.3	-1.26 ± 0.34
GGUGAGCAAUAUUACGCUUC	–	-2.51 ± 0.39
GACCAGCAAUAUUACGUGUA	-0.635 ± 0.06	0.255 ± 0.074
UACAAGCAAUAUUACGCAGC	-4 ± 0.42	-2.63 ± 0.39
CGUAAGCAAUAUUACGUCUA	-2.78 ± 0.28	-2.03 ± 0.18
GCCCAGCAAUAUUACGACGG	-3.59 ± 0.25	-3.13 ± 0.33
CGUCAGCAAUAUUACGGCUU	-1.34 ± 0.11	-0.493 ± 0.099
GGUGAGCAAUAUUACGGGGC	–	-1.01 ± 0.32

Sequence	self-splicing fitness (ln) (30 °C)	self-splicing fitness (ln) (37 °C)
GCGUAGCAAUAUUACGGCCC	0.00127 ± 0.32	-2.25 ± 0.39
GCAUAGCAAUAUUACGGACG	-1.7 ± 0.088	-0.659 ± 0.12
ACCCAGCAAUAUUACGGUCU	-1.12 ± 0.038	-0.171 ± 0.052
CUCAAGCAAUAUUACGAUCU	-3.53 ± 0.26	-2.59 ± 0.24
AUCCAGCAAUAUUACGACAG	-3.47 ± 0.14	-1.75 ± 0.19
GGUUAGCAAUAUUACGGUGA	-1.49 ± 0.13	-0.0195 ± 0.13
UUCAAGCAAUAUUACGACAU	-1.614 ± 0.014	-0.69 ± 0.033
GCAAAGCAAUAUUACGGAUC	-1.26 ± 0.073	-0.379 ± 0.085
AACUAGCAAUAUUACGCGCC	-1.34 ± 0.12	-0.314 ± 0.12
CGCGAGCAAUAUUACGAUCA	-2.91 ± 0.19	-2.04 ± 0.16
CCCUAGCAAUAUUACGCUAU	-3.92 ± 0.43	–
GUAUAGCAAUAUUACGAUAU	-2.87 ± 0.32	-0.832 ± 0.36
GGUCAGCAAUAUUACGUUUU	-0.899 ± 0.073	-0.202 ± 0.078
UAGGAGCAAUAUUACGACUG	-0.384 ± 0.096	0.363 ± 0.14
GAAAAGCAAUAUUACGAACC	-0.664 ± 0.14	-0.705 ± 0.18
UCCGAGCAAUAUUACGAGAG	-2.57 ± 0.16	-2.91 ± 0.21
CAAAAGCAAUAUUACGGUUA	-1.72 ± 0.1	-0.514 ± 0.083
UGUGAGCAAUAUUACGAAUA	-3.54 ± 0.43	-2.26 ± 0.36
GCAUAGCAAUAUUACGCACU	-0.629 ± 0.09	-0.277 ± 0.13
ACUAAGCAAUAUUACGAAUA	-2.99 ± 0.23	-2.55 ± 0.25
CCGAAGCAAUAUUACGGGCA	–	-2.82 ± 0.25
AACAAGCAAUAUUACGCAGG	-2.67 ± 0.11	-1.49 ± 0.098
AUAAAGCAAUAUUACGGGCC	-2.21 ± 0.17	-0.0428 ± 0.17
ACUCAGCAAUAUUACGAUGC	-0.776 ± 0.066	-0.0529 ± 0.075
GGACAGCAAUAUUACGAAAC	-0.691 ± 0.12	-0.624 ± 0.2

Sequence	self-splicing fitness (ln) (30 °C)	self-splicing fitness (ln) (37 °C)
AUCAAGCAAUAUUACGUCCC	-0.841 ± 0.076	0.17 ± 0.11
ACUAAGCAAUAUUACGUAUA	-1.9 ± 0.13	-0.679 ± 0.12
GCUGAGCAAUAUUACGCACA	-3.2 ± 0.39	-3.05 ± 0.4
CCUGAGCAAUAUUACGUGAG	-3.61 ± 0.27	-2.28 ± 0.24
UAUAAGCAAUAUUACGAGUU	-2.72 ± 0.15	-1.11 ± 0.15
UCUGAGCAAUAUUACGUGUC	-4.14 ± 0.32	–
GUAGAGCAAUAUUACGUAUC	-2.44 ± 0.12	-1.58 ± 0.13
UCUCAGCAAUAUUACGCACC	-2.18 ± 0.42	–
AGUUAGCAAUAUUACGCUCU	-1.37 ± 0.45	–
AUCCAGCAAUAUUACGCCAU	-3.28 ± 0.21	-1.27 ± 0.14
GGCCAGCAAUAUUACGAGAC	-3.29 ± 0.25	-2.77 ± 0.28
GAGAAGCAAUAUUACGAAUG	-3.46 ± 0.28	-1.7 ± 0.18
UUUCAGCAAUAUUACGGAAA	-2.7 ± 0.47	-2.07 ± 0.22
CCUCAGCAAUAUUACGAAGU	-3.54 ± 0.17	-1.88 ± 0.15
UGCUAGCAAUAUUACGUAUA	-2.81 ± 0.24	-1.1 ± 0.16
AGACAGCAAUAUUACGCAGU	-3.96 ± 0.2	-3.04 ± 0.27
AAUAAGCAAUAUUACGCCCU	-0.352 ± 0.12	0.525 ± 0.15
UAGCAGCAAUAUUACGCAGU	-3.58 ± 0.47	-2.18 ± 0.21
GUGGAGCAAUAUUACGUUCG	-1.45 ± 0.2	-0.499 ± 0.25
UUACAGCAAUAUUACGUUGA	-1.57 ± 0.1	-0.574 ± 0.1
GUCGAGCAAUAUUACGCUGC	–	-1.97 ± 0.48
AGCGAGCAAUAUUACGCACA	-2.76 ± 0.29	-1.06 ± 0.18
UCGAAGCAAUAUUACGAGAC	-3.11 ± 0.22	–
CCCCAGCAAUAUUACGACCU	-3.23 ± 0.15	-2.32 ± 0.23
GAGCAGCAAUAUUACGACUU	-0.557 ± 0.11	-0.841 ± 0.14

Source: the supplement of paper PMC7877785
